# Laboratory results taken from the DeepSol protein solubility set.
# Assay: soluble on expression in E. coli; label from the status in PepcDB or PDB records
row,Sequence,soluble on expression in E. coli
1,MAIIYAVRERTQSKTAMRKVMDYVVQDKKTMYENENGQRCKLVSGQNCCGDTAFKEFMTTKRQYQKEKGVYFYQYIQSFKPGIHATPQEIHQMGVELAKYFKGYEVQIATHIDRDHWHNHLIVNSVSCETGLKLQFNEKNLEQLRTLSDEICAVHGLDTLKPYQKPKQKPMGAGEYRAAVRGGSYKFKLMNAIDQAMTQSRTREEFIVRMEQMGYQVKWNPHHKYITYTTPEGQRCRDNKLHETKYLKTEMEGYFSAKLRRIEAAQQAGYTGGHPTGTTPADRSSALSAAGQRNTHRPMEHDAGEPDRSHTAVAGIDGIHIHPANRRRRKQYDEELLPERLRQADGSPVEYHTERASADYGEYDFEYGEDDGYDWMEADEYTGALGRKAPAPGHVAHKNESQMGRHRGIDFDDIVALAKAVDDLVNPYNPEEEREKKKKYVPKSDHKKQKKKQHHNHDYELSL,soluble
2,MKEDEVNRCQIQNWYPRFKSLTIKTKFHKLPESFINYLIDDSGPFLLPHSVTNEDAMPNRVHNFEEEDDFQVPEEASDDEPLNRPSFPELEIEIRESIETLGGTIIPKLNWSSPKDAAWISPSQNLSCTCFNEIALLFRSSDSLTHDLFNAYDSCSDKVSSRPESFYLALRKWYPSLKPEMEFRCFVKSNELVGICQREVTTFYPVLLNEKDLLKGLIEEFFDDKIRFEFESENYTFDVYVTKERRVKLIDFNTWCGSTLPLMYTWEELEKIHGECDELELRIVESRLSVLPGLKTAVPYDYLDVSAGSGWAQVLKIVEEEFQKDDQSSDEVA,soluble
3,MIGVVGGGIAGLSAAYRLQQRGHEVRVFEASEDLGGLAATYETAGDPIEKFYHHLSKSEETIVDLAEELGLGDAVEWHIGENAYYVDGVVHPMDKPWEILSYPHLSLYDTFRLGMLVLDIDVRGGVPSFDTYERLEDFEGVPIEEFVVDHTTRGVYENFFEPLLDAKFGDRKDDVSAAWLLGRVKFRGERDILNGEILGYFDGGFGRLLDALVDAVGRDNIATGTRVSDIDTSGGTVSSLTATDGTETTVHDVDSVVVATMPNVLEALTGYTCDIDFQGTVCSVISMDEPLLDTYWLNIADDAPFGALIEHTNFVSAERYGGEHLLYVARYIQDESEAIWQQSDDEVAETWLQGIESLFPDFDRDAVNWIRTGRNPRTAPVYERGYLDMVIPYDLSDAVADGLYYAGMASRAQYPERSLNGGIVAGFECADRIARDPSAATKTDESPLSEAQRLEHHHHHH,not soluble
4,MTSMATPHVAGIAALLLQAHPSWTPDKVKTALIETADIVKPDEIADIAYGAGRVNAYKAINYDNYAKLVFTGYVANKGSQTHQFVISGASFVTATLYWDNANSDLDLYLYDPNGNQVDYSYTAYYGFEKVGYYNPTDGTWTIKVVSYSGSANYQVDVVSDGSLSQPGSSPSPQPEPTVDAKTFQGLEHHHHHH,soluble
5,MGSDKIHHHHHHMITVRDLSWQYEPLVDGGKPVDSLKHVSFDIKSGSFVGVIGPTGAGKSTLCMALAGIIPNLADGTMTGLVEVNGMNTSRHSVSALSERIGYVQQDPEAQLFCASVEDEIAFPLENRGIAPDIIDKQIDVMLDLVGMTGYRKRVPASLSGGQMQRVAIAAALAAEPDVLILDEPTAALDPEGKQEVFDVLERIRQTRSMTVIMAEQDTEHIAYWADQVLFMVNGELVRNGDASLFVREKGLLESSGVQVADDPLPQVKAVQQGKKHKKDKKNQPERSKDVVISLDHVSYQYERGGNASKALDDVTFDIERGSFIGLIGRNGSGKTTLAKHLNGLIRPTQGTVTVDGLDASKHSVGEMAAHVGFVFQNPDHQIFCSTTKEEIAFGPTALGLDGATVFKRVDEMLTLFDLHRYEDVSPATLGYGERRAVALSSVLAMRTPILVLDEPTAGLDHRLAARFLGTIEKLNQRGVTIVMISHDMRAVYRYCTHVLELEDGKVVQYGPIDRSEAAQKQSRTIRKPRKSNGPVSATHVLLKVTKHEEGRH,not soluble
6,MSQEVEETLKRIQSHKGVVGTIVVNNEGIPVKSTLDNTTTVQYAGLMSQLADKARSVVRDLDPSNDMTFLRVRSKKHEIMVAPDKDFILIVIQNPTD,soluble
7,MAHHHHHHMMRLLRNNVKNMFLKNCFLVRNTNVKCWRTDRFHNYNMWNTVENNGIRGFSSSSFEEIKKMNMFTAINSAMHNVFESNPNSVLLGEDVAFGGVFRCSLDLLKKYGNMRVFNTPLCEQGIIGFAIGLAENGFTTIAEIQFGDYIFPAFDQIVNDVAKYRYRSGSSFDVGKLTIRSTWGAVGHGGLYHSQSPEAFFAHAAGIKIIVPSDAYKAKGLLLSAINDPNPCLFFEPKILYRSSVCDVPTGPYQLELGKADVVRQGSDVTIVTWGSLVHKMKNAAEILSKKHNIECEVIDLQSIIPWDIETVQKSVEKTGRLLITHEAQLTNGFGAEIAAKIQERCFYNLHTPIKRVCGYDTPFPHVYEPFYMPDAHKVIYEVKKMMK,not soluble
8,DIQMSQSSSSFSVSLGDRVTITCKASEDIYSRLAWYQQKPGNAPRLLISGATSLETWVPSRFSGSDSGKDYTLSITSLQTEDVATYFCQQYWSPPPTFGGGTKLEIKRADAAPTVSIFPPSSEQLTSGGASVVCFLNNFYPKDINVKWKIDGSERQNGVLNSWTDQDSKDSTYSMSSTLTLTKDEYERHNSYTCEATHKTSTSPIVKSFNRNEC,soluble
9,GPLGSAGSSWQCDTCLLQNKVTDNKCIACQAAKLPLKETAKQTGIGTPSKSDKPASTSGTGFGDKFKPAIGTWDCDTCLVQNKPEAVKCVACETPKPG,soluble
10,MVYFGRAKTLSHRHPNTGSGGCVFSLKTVLLYQQDSYLREFEARVEEASGGRVVLDRTAFHPGPHGGLDTDTGYIFYGDKRYRVVRAAVEGDVVAHYLDSDTATLEPGAVVKGVIDWERRYRMMRLHTFSHILAAVLYEKHDVLVTGGHITPDYGKDDFSIEGGGWREVIEEAFREANEIASRCIEVKVYWLPREEALKIPGIVKLANKLPPEVETLRIVEIPGVDVQADGGPHVRNTCEIGRVVITKLESKGKRRKRVYYTLEEALEPTPEAP,not soluble
11,MGHHHHHHSHMHPDCGFLLNKDVGNIAKYDIRVKNLKSRLRGGKMRYQEEEARLASFRNWPFYVQGISPCVLSEAGFVFTGKQDTVQCFSCGGCLGNWEEGDDPWKEHAKWFPKCEFLRSKKSSEEITQYIQSYKGFVDITGEH,soluble
12,MGSDKIHHHHHHRDMEIGDSGNVEIEMGEAAFVLKTSLSSLETKSLSDAGTLPASMDEAEINNCTLIFFEGTQVSSIMEGLFVNKENYIVKTKDGTKDDWAKVILKVKKPSPYSVMVIANSSKSFAGCQSENNIKDIIQDDKDALVKVGKMDISFDTDFAGYPTIAEALGKPLEIGAIPLSQLTARIELAEFNVSGFQGASVKEKVTVTGVDLLNLNPESYTINEQTHKNATYLSESKTCNVEVYNGVSDLPSTYSFVDNKNLLSFYSFRNLAKAESDQVKMQVRFKIGNSNEERTTRPFVINKEGNILHGVKSGYVYRLVVNMTIIGDKVETELLCYTRDWLNNTISIPMEDN,not soluble
13,MASTDTYNPTRDDFAAMLDESFAGGNLQESSVIKGKVVAIEKDMAVIDVGLKTEGRVPLREFAGPGRDNEIKVGDTVEVFLDRIENALGEAVLSRDKARREESWGKLEKAFQNNEKVFGVIFNQVKGGFTVDLDGAVAFLPRSQVDIRPIRDVAPLMNNSQPFQILKMDRRRGNIVVSRRTVLEETRAEQRQELVQNLEEGQVIDGVVKNITDYGAFVDLGGIDGLLHVTDIAWRRVNHPTEVLTIGQTVKVKIIKINHETHRISLGMKQLLDDPWQGIEAKYPLNARFTGRVTNITDYGAFVELEPGIEGLIHVSEMSWTKKNMHPGKIVSTSQEVEVQVLEVDSVKRRISLGLKQTMRNPWEVFVEKHPVGSTVEGEVKNKTEFGLFLGLDGDVDGMVHLSDLDWKLPGEQVIDNFKKGDMVKAVVLDVDVEKERISLGVKQLEGDPFAEPGDVKKGAVVTCEVLDVKESGIDVQIVGTDFNTFIKRSELARDRNDQRSDRFAVGEKVDARVIQFDKKARKVQVSIKALEVAEEKEAIAQYGSSDSGATLGDILGTALKQRDKLEHHHHHH,soluble
14,MDITLRTLTENDLPFVKDIYDYYTLHTTVVYFVHCASIDELKNYIPVGDPVYRSFIIETPEGAPCGFCYFARFKPREAFRISVELTLYLKPEFTGRGYGKQAILRLEEIIRQEGFSNIMALISGENEASIRLFEKCGFECCANIRQVAEKFGKKLDLRMYQKIISDNSHLTP,not soluble
15,MFGGSAPKPSIFGGTAATTTASSGFSFGNSSTSTANTGGNTNTTGGFSFGSAQPSTGSTGLFGNSTATGSMFGGSSAAAPAPASAGIFGNSGAAAPAPASTSIFGSSANSAAPATVTFGASAPSAGAGMFGANKPAAPTGGLFGSSTSTATTAPTGGLFGSSTAAPSSGLFGSTAAPAAPGGLFGSTSTSTAAPSGGLFGSSAAPTSTAPAPSGGLFGAAPATSNAAPTSGLFGNSAPAATASSGGLFGAAPKPAAPSGGLFGSTAPATTAATTTATSGLFGAPTSAPSSAPATGGLFGASTAPAAATGGLFSIGAASASTPSVGLFGNSSASTTAAAAPATAPAAASTGGLFGATTAAAAAPTSSTTGGLFGSTAAAPAASLPTGGLFGSSTPAKTPAAPTAGLFGASSTTTTSAPATGSLFGTAPATTTATSAAPAASTGGLFGASSTTTPASTAPTGGLFGAATTTAPAAAAPTGGLFGAATTTAPATVGPTGGLFGAATTTTPATAATLGQTPSTVSATPSLPTTTSTTSTLPKPAEATPTLGLGLGLTSTPLAKGTGWTTSGLKGAATTSAGLKIGASGSDTLSEEEIKAGLGGNDTKAFFTALQEVVNSYHSEIAKQERVFHNKMLELNAYDRELITLEPKVLGLYNEMDDLSGSCKKLHFNVASMTSVLNDIEQNVVELENKLSLPEWHTLDYKFPLDSRFASRHDVQRVQIAQMMLNVDSQMKCADFDLDQITKSLNTMQSTVLKTKTETPLEKTELIMKKQLQKLMDLSTQHDATRDKLNKLKDDHNLKTNNSSKA,not soluble
16,MVSSKLATPLSIQGEVIYPDDSGFDAIANIWDGRHLQRPSLIARCLSAGDVAKSVRYACDNGLEISVRSGGHNPNGYATNDGGIVLDLRLMNSIHIDTAGSRARIGGGVISGDLVKEAAKFGLAAVTGMHPKVGFCGLALNGGVGFLTPKYGLASDNILGATLVTATGDVIYCSDDERPELFWAVRGAGPNFGVVTEVEVQLYELPRKMLAGFITWAPSVSELAGLLTSLLDALNEMADHIYPSVFVGVDENRAPSVTVCVGHLGGLDIAERDIARLRGLGRTVSDSIAVRSYDEVVALNAEVGSFEDGMSNLWIDREIAMPNARFAEAIAGNLDKFVSEPASGGSVKLEIEGMPFGNPKRTPARHRDAMGVLALAEWSGAAPGSEKYPELARELDAALLRAGVTTSGFGLLNNNSEVTAEMVAEVYKPEVYSRLAAVKREYDPENRFRHNYNIDPEGS,soluble
17,MSLESKYTVLDMFSGAGGLTEGFFQQGFKFVSHIEKNCHARNSLETRAIYHSLKDSSNERIYRDYISGNLNRDEFIHKFKELELTPAGLLQGEVTESNETTMIKEIKEHLKVIDSDSVDVVIGGPPCQAYSVAGRGRKPKEMKDDPRNYLYRHYISFLKSFEPKIFVFENVPGIKSAINGIIFSNLHEELEKLGYKTEAHMLNAKDFSVLQERNRIIFIGWKNEHDLSYPDFLKTPLGRFHVSSLLNDLPPLQAGEGTEGPAKYTKPFSWSSEYLQRFKIREKKDILIQHNARIHNPRDRTIYRLAIEKWDKERKRLKYNELSPELQTHKNKTSFLDRFKVVNQYGYSHAILAHISKDGHYFIHPDIHQARSLTVREVARIQSFPDNYKFEGPRIAQYAQIGNAVPPLMAKGIAVEIEKMLEEISEGHHHHHH,not soluble
